Data as given in publication PMC6527160.

Key:
LASV L protein Strep407 [1] = target: T1, LASV L protein Strep407 (Lassa virus Bantou 289, UniProt A0A3S8NV63 1-2217); assay: EMSA; […]) pH 7.0, 150 mM NaCl ([…]; details: protein: recombinant; tags: internal StrepII-tag inserted after residue 407; chain copies: 2; label: 32P (5' end, T4 PNK); single strand
LASV L protein Strep407 [2] = target: T1, LASV L protein Strep407; assay: EMSA; 0-1 uM L, 0.6 uM RNA; 4 mM Mg2+; […]) pH 7.0, 150 mM NaCl ([…]; details: protein: recombinant; tags: internal StrepII-tag inserted after residue 407; chain copies: 2; label: 32P (5' end, T4 PNK); single strand

Binder: GCGCACCGGGGAUCCUAGGC (ssRNA) [vRNA 5'G]
- binding result (LASV L protein Strep407 [1]): binds

Binder: CGCACCGGGGAUCCUAGGC (ssRNA) [vRNA 5']
- binding result (LASV L protein Strep407 [2]): binds
